First the molecules themselves.
B2: insulin-like growth factor binding protein 2 (IGFBP2) (other, human, UniProt P18065 36-325, looked up)
chain: AEVLFRCPPCTPERLAACGPPPVAPPAAVAAVAGGARMPCAELVREPGCGCCSVCARLEGEACGVYTPRCGQGLRCYPHPGSELPLQALVMGEGTCEKRRDAEYGASPEQVADNGDDHSEGGLVENHVDSTMNMLGGGGSAGRKPLKSGMKELAVFREKVTEQHRQMGKGGKHHLGLEEPKKLRPPPARTPCQQELDQVLERISTMRLPDERGPLEHLYSLHIPNCDKHGLYNLKQCKMSLNGQRGECWCVNPNTGKLIQGAPTIRGDPECHLFYNEQQEARGVHTQRMQ
notes: Control protein of the pull-down assay
B4: SPARC-like protein 1 (SPARCL1) (other, human, UniProt Q14515 17-664, looked up)
chain: IPTNARLLSDHSKPTAETVAPDNTAIPSLRAEAEENEKETAVSTEDDSHHKAEKSSVLKSKEESHEQSAEQGKSSSQELGLKDQEDSDGHLSVNLEYAPTEGTLDIKEDMSEPQEKKLSENTDFLAPGVSSFTDSNQQESITKREENQEQPRNYSHHQLNRSSKHSQGLRDQGNQEQDPNISNGEEEEEKEPGEVGTHNDNQERKTELPREHANSKQEEDNTQSDDILEESDQPTQVSKMQEDEFDQGNQEQEDNSNAEMEEENASNVNKHIQETEWQSQEGKTGLEAISNHKETEEKTVSEALLMEPTDDGNTTPRNHGVDDDGDDDGDDGGTDGPRHSASDDYFIPSQAFLEAERAQSIAYHLKIEEQREKVHENENIGTTEPGEHQEAKKAENSSNEEETSSEGNMRVHAVDSCMSFQCKRGHICKADQQGKPHCVCQDPVTCPPTKPLDQVCGTDNQTYASSCHLFATKCRLEGTKKGHQLQLDYFGACKSIPTCTDFEVIQFPLRMRDWLKNILMQLYEANSEHAGYLNEKQRNKVKKIYLDEKRLLAGDHPIDLLLRDFKKNYHMYVYPVHWQFSELDQHPMDRVLTHSELAPLRASLVPMEHCITRFFEECDPNKDKHITLKEWGHCFGIKEEDIDENLLF
notes: Endogenous protein in SVZ hNPC conditioned media

Experiment in all cases: co-immunoprecipitation from SVZ hNPC conditioned media, Western blot
For orientation: Immunoblotting shows a protein as a band on a membrane.

In assay [1] the target is T1, 78 kDa glucose-regulated protein (GRP78) (human, UniProt P11021 19-654).
T1 construct: Control protein of the pull-down assay
T1 sequence (P11021 19-654 limits assumed): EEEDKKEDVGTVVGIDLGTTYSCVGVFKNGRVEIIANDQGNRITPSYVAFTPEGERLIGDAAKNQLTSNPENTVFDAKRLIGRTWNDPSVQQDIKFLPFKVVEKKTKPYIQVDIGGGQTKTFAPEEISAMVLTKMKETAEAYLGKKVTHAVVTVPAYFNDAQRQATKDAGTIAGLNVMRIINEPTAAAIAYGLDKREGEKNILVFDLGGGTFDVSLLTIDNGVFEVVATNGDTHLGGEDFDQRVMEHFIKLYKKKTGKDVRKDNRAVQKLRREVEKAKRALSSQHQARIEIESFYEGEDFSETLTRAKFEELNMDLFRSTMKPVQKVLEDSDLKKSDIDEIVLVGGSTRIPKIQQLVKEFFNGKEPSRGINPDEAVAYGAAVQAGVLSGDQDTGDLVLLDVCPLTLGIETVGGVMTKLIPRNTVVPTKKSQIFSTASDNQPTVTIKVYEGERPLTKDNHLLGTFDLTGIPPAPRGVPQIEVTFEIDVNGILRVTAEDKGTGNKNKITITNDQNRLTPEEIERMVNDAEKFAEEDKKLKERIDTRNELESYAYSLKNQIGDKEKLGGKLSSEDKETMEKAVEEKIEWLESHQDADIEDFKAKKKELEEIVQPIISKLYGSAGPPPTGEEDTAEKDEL
The procedure:
(§1) To assess the specificity of the pull-down assay, three control proteins also present in SVZ hNPC CM: 78 kDa glucose-regulated protein (GRP78), insulin-like growth factor binding protein 2 (IGFBP2), and brevican (BCAN), were immunoprecipitated and were not found to copurify with any of the four proteins (FIG. 4D).
(§2) Immunoprecipitation reactions were conducted using the Pierce Crosslink Magnetic IP/Co-IP Kit (Thermo Scientific, Waltham, Mass.). 25 μL of Pierce Protein A/G Magnetic Beads per reaction were rinsed and incubated with 5 μg of antibody on a rotating platform for 15 minutes at room temperature. Antibodies used were: mouse anti-pleiotrophin (Santa Cruz Biotechnology, Santa Cruz, Calif.), rabbit anti-SPARC (Santa Cruz Biotechnology, Santa Cruz, Calif.), mouse anti-SPARCL1 (Santa Cruz Biotechnology, Santa Cruz, Calif.), rabbit anti-HSP90B (GeneTex, Irvine, Calif.), rabbit normal IgG (Santa Cruz Biotechnology, Santa Cruz, Calif.), and mouse normal IgG (Santa Cruz Biotechnology, Santa Cruz, Calif.). Beads were rinsed, and subsequently crosslinked to the antibodies using 0.02 mM DSS for 30 minutes at room temperature. Beads were washed and then incubated with a mixed combination of 250 μL neural precursor cell conditioned media and 250 μL IP lysis/wash buffer overnight at 4° C. The following morning, beads were washed, resuspended in Laemmli loading buffer, and boiled at 100° C. for 5 minutes to release the bound antigens from the beads. Samples were loaded immediately onto Western blots for analysis of the bound antigens, or stored at −20° C. for future analysis. For Western blot analysis, 2% of the input conditioned media was loaded, and 5% of the IP bound antigen samples were loaded.

In another assay the target is T2, brevican (BCAN) (human, UniProt Q96GW7 23-911, limits assumed).
T2 construct: Control protein of the pull-down assay
T2 sequence (looked up): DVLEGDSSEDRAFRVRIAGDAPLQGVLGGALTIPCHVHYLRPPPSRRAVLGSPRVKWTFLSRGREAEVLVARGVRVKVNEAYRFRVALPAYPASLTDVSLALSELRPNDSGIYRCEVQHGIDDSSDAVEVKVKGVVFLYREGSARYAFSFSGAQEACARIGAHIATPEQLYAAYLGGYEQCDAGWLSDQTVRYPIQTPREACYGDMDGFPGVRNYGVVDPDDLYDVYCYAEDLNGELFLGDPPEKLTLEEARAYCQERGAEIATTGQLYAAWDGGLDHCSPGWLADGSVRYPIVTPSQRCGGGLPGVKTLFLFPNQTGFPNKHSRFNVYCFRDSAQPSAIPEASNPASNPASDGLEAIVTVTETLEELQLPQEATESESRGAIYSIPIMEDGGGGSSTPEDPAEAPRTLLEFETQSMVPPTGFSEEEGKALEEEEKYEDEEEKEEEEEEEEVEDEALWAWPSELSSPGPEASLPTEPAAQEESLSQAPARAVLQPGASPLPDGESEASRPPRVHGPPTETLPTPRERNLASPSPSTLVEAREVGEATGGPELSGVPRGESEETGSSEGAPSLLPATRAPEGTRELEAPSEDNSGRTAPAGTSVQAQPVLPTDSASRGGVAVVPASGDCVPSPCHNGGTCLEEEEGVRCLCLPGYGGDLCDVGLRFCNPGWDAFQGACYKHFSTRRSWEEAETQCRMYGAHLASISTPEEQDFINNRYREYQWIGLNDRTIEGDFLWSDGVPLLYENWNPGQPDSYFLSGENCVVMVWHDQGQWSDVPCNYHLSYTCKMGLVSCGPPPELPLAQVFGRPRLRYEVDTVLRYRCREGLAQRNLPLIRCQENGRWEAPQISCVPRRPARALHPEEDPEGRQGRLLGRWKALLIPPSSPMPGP
The procedure:
as §1, §2

The target in assay [2] is B2. The procedure: as §1, §2
The target of assay [3] is B4. Here is the method: as §1, §2
Assay [4] addresses T3, heat shock protein 90B (HSP90B) (human, UniProt P14625 22-803, limits assumed).
T3 construct: Endogenous protein in SVZ hNPC conditioned media; 'HSP90B' alone is ambiguous
The procedure:
as §1, §2

T3 sequence (P14625 22-803 limits assumed): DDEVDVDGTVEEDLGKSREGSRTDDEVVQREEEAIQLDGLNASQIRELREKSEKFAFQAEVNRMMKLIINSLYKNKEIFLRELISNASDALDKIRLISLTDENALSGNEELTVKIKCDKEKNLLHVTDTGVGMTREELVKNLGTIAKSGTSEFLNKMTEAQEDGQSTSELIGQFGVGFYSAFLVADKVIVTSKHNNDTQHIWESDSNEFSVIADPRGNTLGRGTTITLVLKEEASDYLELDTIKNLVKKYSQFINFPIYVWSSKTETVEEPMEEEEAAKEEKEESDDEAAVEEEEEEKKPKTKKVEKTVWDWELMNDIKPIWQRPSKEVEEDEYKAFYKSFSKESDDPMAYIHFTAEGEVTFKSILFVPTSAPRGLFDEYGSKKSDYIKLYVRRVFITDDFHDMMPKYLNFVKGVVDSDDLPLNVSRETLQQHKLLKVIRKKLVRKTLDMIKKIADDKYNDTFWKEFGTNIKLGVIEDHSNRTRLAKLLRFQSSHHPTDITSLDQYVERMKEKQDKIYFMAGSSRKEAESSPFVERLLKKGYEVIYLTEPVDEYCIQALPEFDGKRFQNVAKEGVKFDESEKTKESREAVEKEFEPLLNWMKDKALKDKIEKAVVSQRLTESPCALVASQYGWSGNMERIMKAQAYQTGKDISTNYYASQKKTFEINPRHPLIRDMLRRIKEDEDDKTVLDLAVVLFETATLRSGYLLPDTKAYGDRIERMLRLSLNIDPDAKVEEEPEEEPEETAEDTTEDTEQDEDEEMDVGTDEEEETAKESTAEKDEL

B1: pleiotrophin (PTN) (ligand, human, UniProt P21246 33-168, looked up)
chain: GKKEKPEKKVKKSDCGEWQWSVCVPTSGDCGLGTREGTRTGAECKQTMKTQRCKIPCNWKKQFGAECKYQFQAWGECDLNTALKTRTGSLKRALHNAECQKTVTISKPCGKLTKPKPQAESKKKKKEGKKQEKMLD
notes: In the SEC and co-IP experiments this is the endogenous protein in SVZ hNPC conditioned media
With B1, the binding result (in assay [1]; with brevican (BCAN); in assay [2]) was “no binding” in each case.
On to B2, for which the binding result in assay [3] and in assay [4] was “no binding” each time.

B3: secreted protein acidic and rich in cysteine (SPARC) (other, human, UniProt P09486 18-303, looked up)
chain: APQQEALPDETEVVEETVAEVTEVSVGANPVQVEVGEFDDGAEETEEEVVAENPCQNHHCKHGKVCELDENNTPMCVCQDPTSCPAPIGEFEKVCSNDNKTFDSSCHFFATKCTLEGTKKGHKLHLDYIGPCKYIPPCLDSELTEFPLRMRDWLKNVLVTLYERDEDNNLLTEKQKLRVKKIHENEKRLEAGDHPVELLARDFEKNYNMYIFPVHWQFGQLDQHPIDGYLSHTELAPLRAPLIPMEHCTTRFFETCDLDNDKYIALDEWAGCFGIKQKDIDKDLVI
notes: as for B4
Take B3: the binding result (with brevican (BCAN); in assay [2]) was “no binding” throughout.
Consider B4, for which the binding result in the assay with brevican (BCAN) is given as “no binding”.

Source of the values: US20190055556A1 (Stanford University, published 2019).
